The text below walks through data of patent publication US20180362628A1 (KYMAB, published 2018).

For assay [1], the target named is T1, full CSP protein (analyte of Example 12) (Plasmodium falciparum (isolate 3D7), UniProt Q7K740 19-374).
T1 construct: not shown: C-terminal tags
As to the kind of experiment: SPR, IgG1 from supernatant on anti-human IgG surface, CSP as analyte, 25 C, 1:1 fit.

Assay [2] has as its target T2, Recombinant CSP (Wellcome Trust Sanger Institute, FIG. 22), CSP ectodomain with BirA biotinylation tag, … (Plasmodium falciparum strain 3D7, UniProt Q7K740 19-376, biotinylated at the BirA substrate peptide).
T2 construct: extracellular domain; Expressed in HEK293, 45 kDa; order of the tags is that of the legend, not confirmed; also called biotinylated recombinant CSP
In words: SPR (ProteOn), biotinylated CSP on NLC chip, Fab as analyte, 25 C, 1:1 fit.

B1: CL-141766 (antibody, V domains shown)
VH: QVQLVQSGAEVKKPGASVKVSCKASGYTFTSYAMHWVRQAPGQRLEWMGWINAGNGNTKYSQKFQGGVTITRDTSASTAYMELSSLRSEDTAVYYCARDNYYDSGSYYDYYYYGMDVWGQGTTVTVSS
VL: QSALTQPASVSGSPGQSITFSCTGTSSDVGSYNHVSWYQQHPGKAPKLMIYDVSKRPSGVSNRFSGSKSGNTASLTISGLQAEDEADYYCCSYAGSSTWVFGGGTKLTVL
notes: human IgG1, HEK (Expi293F) culture supernatant
The kon is the rate constant with which the complex forms. Molecule B1 displayed a kon in assay [1] of 528000 M⁻¹ s⁻¹.

B2: Antibody 667 Fab (Fab, V domains shown)
VH: QVQLVQSGAEVKKPGASVKVSCRASGYTFTNYAMHWVRQAPGQRLEWMGWINAGNGYTKYSQKFQDRVTITRDTSATTAYMELSSLRSEDTAMYYCARDSFYDILSGPVYHYYGMDVWGQGTTVTVSS
VL: QSALTQPDSVSGSPGQSITISCTGTSNDVGIYNHVSWYQQHPGKAPKLMIYDVNKRPSGISNRFSGSKSGDTASLTISGLQAEDEADYYCCSYAGSSAWVFGGGTKLTVL
notes: recombinant human Fab from CHO-3E7 cells, purified on nickel columns
What is called Kd is the concentration at which binding is half-saturated. What is called koff is a measure of how fast the partners let go of each other. B2: in assay [2], the Kd came out at 31.6 nM, the koff came out at 0.00079 s⁻¹ and the kon stood at 25000 M⁻¹ s⁻¹.

B3: CL-141786 (antibody, V domains shown)
VH: QVQLLQSGAEVKKPGASVKVSCKASGYTFTNYAMHWLRQAPGQRLEWMGWINAGNGYTKYSQKFQGRVTITRDTSATTAYMDLSSLRSEDTAVYYCARDNYYDSNVYNSYYFYGMDVWGQGTTVTVSS
VL: QSVLTQPASVSGPPGQSITISCTGTSSDVGNYNHVSWYQQHPDKAPKLMIYDVNKRPSGISNRFSGSKSGNTASLTISGLQAEDEADYYCCSYAGSSTWVFGGGTKLTVL
notes: as for B1
On to B3, for which the kon in assay [1] was 457000 M⁻¹ s⁻¹.

B4: CL-141791 (antibody, V domains shown)
VH: QVQLVQSGAEVKKPGASVKVSCRASGYTFTNYAMHWVRQAPGQRLEWMGWINAGNGYTKYSQKFQDRVTITRDTSATTAHMELSSLRSEDTAMYYCARDSFYDILTGPVYHYYGMDVWGQGTTVTVSS
VL: QSALTQPDSVSGSPGQSITISCTGTSNDVGVYNHVSWYQQHPGKAPKLMIYDVSKRPSGVSNRFSGSKSGNTASLTISGLQAEDEADYYCCSYVGSSAWVFGGGTNLTVL
notes: as for B1
B4 had a kon in assay [1] of 253000 M⁻¹ s⁻¹.

B5: CL-141772 (antibody, V domains shown)
VH: QVQLVQSGAEVKKPGASVKVSCKASGFIFINYAMQWVRQAPGQRLEWMGWINAGNGYTKYSQKFQGRVTITRDISANTVYMELSSLRSEDTAVYYCARDGFCSTTTCSDHYGMDVWGQGTTVTVSS
VL: QSALTQPASVSGSPGQSITISCTGTSSDVGGYNYVSWYQQHPGKAPKLMIYDVSKRPSGVSDRFSGSKSGNTASLTISGLQTEDEADYYCCSYAGSSTWVFGGGTKLTVL
notes: as for B1
Molecule B5 yielded a kon in assay [1] of 338000 M⁻¹ s⁻¹.

B6: CL-141783 (antibody, V domains shown)
VH: QVQLVQSGAEVKKPGASVKLSCKASGYTFTNYAMHWVRQAPGQSLEWMGWINAGNGYTKYSQKFQGRVTITRDTSANTAYMDLSSLRSEDTAVYYCARDQYYDILKGYYNVDYYYGMDVWGQGTTVAVSS
VL: QSALTQPASVSGSPGQSITISCTGTSSDVGSYNHVSWYQQHPGKAPKLMIYDVSKRPSGVSDRFSGSKSGNTASLTISGLQAEDEADYYCCSYVGSSTWVFGGGTKLTVL
notes: as for B1
As for B6, the kon in assay [1] amounted to 128000 M⁻¹ s⁻¹.

B7: CL-141785 (antibody, V domains shown)
VH: QVQLVQSGAEVKKPGASVRVSCKASGFTFISYAMHWVRQAPGQGLEWMGWINAGDGHTKYSQKFQDRVAITRDTSATTVYMDLSSLRSEDTAVYYCSRDGFCTTTTCSDHYGMDVWGQGTTVTVSS
VL: QSALTQPASVSGSPGQSITISCTGTSSDVGSYNYVSWYQQHPGKAPKFMIYDVSKRPSGVSDRFSGSKSGNTASLTISGLQAEDEADYYCCSYAGSSTWVFGGGTKLTVL
notes: as for B1
Turning to B7, in assay [1], the kon came to 573000 M⁻¹ s⁻¹.

B8: CL-141806 (antibody, V domains shown)
VH: QVQLVQSGAEVKKPGASVKVSCKASGYTFTNYAIHWVRQAPGQRLEWMGWINAGNGNTKYSQKFQGRVTITRDTSASTAYMELSSLRSEDTAVYYCARDNFYGSGTYFSYFFYHMDVWGQGTTVTVSS
VL: QSALTQPASVSGSPGQSITISCTGTSSDVGSYNHVSWYQQHPGKAPKLMIYDVSKRPSGMSDRFSGSKSGNTASLTISGLQAEDEADYYCCSYAGSSTWVFGGGTKLTVL
notes: as for B1
As for B8, the kon in assay [1] worked out at 284000 M⁻¹ s⁻¹.

B9: CL-141790 (antibody, V domains shown)
VH: QVQLVQSGAEVKRPGASVKISCKASGYTFTNYAIHWVRQAPGQRLEWMGWINAGNGYTKYSQKFQGRVTITRDTSATSAYLELYSLISEDTAVYYCVRDEYYDSGSSNYYYYGMDVWGQGTTVTVSS
VL: QSALTQPASVSGSPGQSITISCTGTSSDVGNYNHVSWYQQHPDKAPKLMIYDVSKRPSGVSNRFSGSKSGNTASLTISGLQAEDEADYYCCSYAGSSTWVFGGGTKLTVL
notes: as for B1
Consider B9, for which the association rate constant (kon) in assay [1] is 428000 M⁻¹ s⁻¹.

B10: CL-141802 (antibody, V domains shown)
VH: QVQLVQSGTEVKKPGASVKVSCKASGFTFSSYAMHWVRQAPGQRLEWMGWINAGNGNTKYSQKFQGRVTITRDTSASTAYMELSSLRSEDTAVYYCARDGYCSSTSCYGYYGMDVWGQGTTVTVSS
VL: QSALTQPASVSGSPGQSITISCTGTSSDVGAYNYVSWYQQHPGKAPKLMISDVSKRPSGVSNRFSGSKSDNTASLTVSGLQAEDEAVYYCCSYAGSSTWVFGGGTKLTVL
notes: as for B1
Molecule B10 registered a kon in assay [1] of 313000 M⁻¹ s⁻¹.

B11: CL-141779 (antibody, V domains shown)
VH: QVQLVQSGAEVKKPGASVKVSCKASGYTFTSYAMHWVRQAPGQRLEWMGWINAGNGNTKYSQKFQGRVTITRDTSASTAYMELSSLRSEDTAVYYCARDQYYDILTPYYYYYYGMDVWGQGTTVTVSS
VL: QSALTQPASVSGSPGQSITISCTGTSSDVGGYNYVSWYQQHPGKAPKLMIYVVSKRPSGVSNRFSGSKSGNTASLTISGLQAEDEADYYCCSYAGSSTWVFGGGTKLTVL
notes: as for B1
B11 yielded a kon in assay [1] of 298000 M⁻¹ s⁻¹.

B12: CL-141805 (antibody, V domains shown)
VH: QVQLVQSGAEVKKPGASVKVSCKASGYTFTNYAMHWVRQAPGQRLEWMGWINAGNGNTKYSQNFQGRVTITRDTSASTAYMELSSLRSEDTAVYYCARDEYYASGSYYDYYYYGMDVWGQGTTVTVTS
VL: QSALTQPASVSGSPGQSITISCTGTSSDVGVYNYVSWFQQHPGKAPKLMIYNVSKRPSGVSNRFSGSKSGNTASLTISGLQAEDEADYYCCSYAGSSTWVFGGGTNLTVL
notes: as for B1
In assay [1], B12 came in with a kon of 1.19e+06 M⁻¹ s⁻¹.

B13: CL-141784 (antibody, V domains shown)
VH: QVQLVQSGAEVKNPGASLKVSCKASGYTFTNYAMHWVRQAPGQRLEWMGWINAGNGYTKYSQTFQGRVTITRDTYASTAYMELSSLRSEDTAVYYCVRDEYYESGSSNYYYYGMDVWGQGTTVTVSS
VL: QSALTQPASVSGSPGQSITISCTGTSSDVGSYNHVSWYQQHPGKAPKLMIYDVSTRPSGVSNRFSGSKSGNTASLTISGLQAEDEADYYCCSYAGSSTWVFGGGTKMTVL
notes: as for B1
B13 registered a kon in assay [1] of 541000 M⁻¹ s⁻¹.

B14: CL-141792 (antibody, V domains shown)
VH: QVQLVQSGAEVKKPGASVKVSCKASGYTFTSYAMHWVRQAPGQRLEWMGWINAGNGYTKYSQNFQGRVTITRDTSASTAYMELSSLRSEDTAVYYCARDNYFDSSVYDSSYYFYYGMDVWGQGTTVTVSS
VL: QSALTQPASVSGSPGQSITISCTGTSSDVGSYNHVSWYQQHPGKAPKLMIYDVSKRPSGVSNRFSGSKSGNTASLTISGLQAEDEADYYCCSYAGSSTWVFGGGTKLTVL
notes: as for B1
Regarding B14, the on-rate constant (kon) in assay [1] came to 51300 M⁻¹ s⁻¹.

B15: Antibody 666 Fab (Fab, V domains shown)
VH: QVQLVQSGAEVKKPGASVKVSCKASGYTFTNYAMHWVRQAPGQRLEWMGWINAGNGNTKYSQNFQGRVTITRDTSASTAYMELSSLRSEDTAVYYCARDEYYASGSYYDYYYYGMDVWGQGTTVTVTS
VL: QSALTQPASVSGSPGQSITISCTGTSSDVGVYNYVSWFQQHPGKAPKLMIYNVSKRPSGVSNRFSGSKSGNTASLTISGLQAEDEADYYCCSYAGSSTWVFGGGTNLTVL
notes: as for B2
In the case of B15, in assay [2], the dissociation constant (Kd) amounted to 52 nM, the koff was 0.00249 s⁻¹ and the on-rate constant (kon) came out at 48000 M⁻¹ s⁻¹.

B16: CL-141769 (antibody, V domains shown)
VH: QVQLVQSGAEVKKPGASVKVSCRASGYTFTNYAMHWVRQAPGQRLEWMGWINAGNGYTKYSQKFQDRFTITRDTSATTAYMELSSLRSEDTAVYYCARDSFYDILTGPVYHYYGMDVWGQGTTVTVSS
VL: QSALTQPDSVSGSPGQSITISCTGTSNDVGVYNHVSWYQQHPGKAPKLMIYDVSKRPSGVSNRFSGSKSGNTASLTISGLQAEDESDYYCCSYAGSSTWVFGGGTKLTVL
notes: as for B1
With B16, the kon in assay [1] turned out to be 156000 M⁻¹ s⁻¹.

B17: CL-141776 (antibody, V domains shown)
VH: QVQLVQSGAEVKNPGASVKVSCKASGFTFTNYAMHWVRQAPGQRLEWMGWINAGNGHTKYSQKFQDRVAITRDTSATTAYMELSSLRSEDTAVYYCSRDGFCSTTTCSDHYGMDVWGQGTTVTVSS
VL: QSALTQPASVSGSPGQSITISCTGTSSDVGGYNYVSWYQQHPGKAPKFMIYDVSKRPSGVSNRFSGSKSGNTASLTISGLQAEDEADYYCCSYAGSSTWVFGGGTKLTVL
notes: as for B1
Regarding B17, the kon in assay [1] was 143000 M⁻¹ s⁻¹.

B18: CL-141781 (antibody, V domains shown)
VH: QVQLVQSGAEVKKPGASVKVSCRASGYTFSNYAMHWVRQAPGQRLEWMGWINAGNGYTKYSQKFQDRVTITRDTSATTAYMELSSLRSEDTAMYYCSRDSFYDILTGPVYHYYGMDVWGQGTTVTVSS
VL: QSALTQPDSVSGSPGQSITISCTGTSNDVGVYNHVSWYQQHPGKAPKLMIYDVSKRPSGVSNRFSGSKSGNTASLTISGLQAEDEADYYCCSYVGNSAWVFGGGTKLTVL
notes: as for B1
Turning to B18, the kon in assay [1] was determined as 221000 M⁻¹ s⁻¹.

B19: CL-141789 (antibody, V domains shown)
VH: QVQLVQSGAEVKKPGASVRVSCKTSGFTFTSYAIQWVRQAPGQGLEWMGWINAGDGHTKYSQKFQDRVVITRDTSATTVYMDLSSLRSEDTAVYYCTRDGFCTTTTCSDHYGMDVWGQGTTVTVSS
VL: QSALTQPASVSGSPGQSITISCTGTSSDVGSYNYVSWYQQHPGKVPKFMISDVSKRPSGISDRFSGSKSGNTASLTISGLQAEDEADYYCCSYAGGSTWVFGGGTKLTVL
notes: as for B1
B19 came in with a kon in assay [1] of 293000 M⁻¹ s⁻¹.

B20: CL-141799 (antibody, V domains shown)
VH: QVQLVQSGAEVKKPGASVKVSCKASGFTFTDYAMHWVRQAPGQRLEWMGWINAGNGYTKYSQKFQDRLTITRDTFASTVYMELSSLRSEDTTVYYCARDGFCPSNTCSGYYGMDVWGQGTTVTVSS
VL: QSALTQPASVSGSPGQSITISCTGTSSDVGAYKYVSWYQQHPGKAPKLMIYDVNTRPSGVSTRFSASKSGNTASLTVSGLQAEDEAVYYCSSYAGSSTWVFGGGTKLTVL
notes: as for B1
In turn, B20 had a kon in assay [1] of 486000 M⁻¹ s⁻¹.
